{"source": "paper PMC7380959", "about": "(Science Advances, 2020)", "binders": {"B1": {"name": "212.1.1 IgG (antibody, V domains shown)", "VH": "QVQLVQSGAEVKKPGSSVKVSCKASGGTLSSYGISWVRQAPGQGLEWLGGSIPILGTSVYAQKFQGRVTMTADESTSTAHMELSSLRFDDTAIYYCAGVREGMAAISGKNAFDIWGQGTMVTVSS", "VL": "DIQMTQSPSSLSASVGDRVTITCRASQGISNYLAWYQQKPGKVPKLLIYAASTLQSGVPSRFSGSGYGTEFTLTISSLQPEDVATYYCQQHDNLPLTFGGGTKVEIK"}}, "target": "H77 E1E2 (full-length E1E2, wild type) (Hepatitis C virus genotype 1a, isolate …)", "experiment": "ELISA"}
{"binder": "B1", "values": [{"measurement": "binding result", "result": "binds"}]}
